Measurements as given in article PMC2120552.
Where “and” joins values, the source holds several entries; their conditions need not be identical. Equal values may be shown once.

Molecular target: synthetic beta1 peptide, identical in sequence to the complete cytoplasmic domain of the beta1 integrin subunit
Experiment: pull-down

percent of the protein in the lysate bound: 10% and > 10%
Substance: alpha-actinin (from UniProt P05094 1-893) (natural protein)
